The target in the assay is mouse serum albumin (MSA) (mouse, UniProt P07724 25-608). In words: yeast surface display library on rcSso7d scaffold, selection for MSA binders.

B1: M18.2.5 (designed binder)
chain: ATVKFTYRGEEKQVDISKIKWVVRLGQVIMFKYDEGGGASGYGRVSEKDAPKELLQMLEK
notes: Isolated from a yeast surface display library built on the rcSso7d scaffold; In the vaccines it was fused at its C-terminus to GGGS-His tag-GGGS-E7 long
Regarding B1, the binding result is reported as “binds”.

B2: M11.1.2 (designed binder)
chain: ATVKYTYRGEEKRVDISKIKWVNRWGQHLAFKYDKGGGAAGYGWVSEKDAPKELLQMLEKR
notes: as for B1
As to B2, the binding result was “binds”.

The record behind these values is patent publication US20170252417A1 (MIT, published 2017).
